The text below walks through data of patent US8257698B2, “Protein engineering of monoacylglycerol lipase (MGLL)” (Janssen Pharmaceutica N.V., priority 2008, dated 2012).

B1: mut-MGLL 9-297, L169S, L176S: engineered form of human MGLL, cap mutations plus truncation (protein, UniProt Q99685 9-297, looked up, variant L169S L176S)
chain: RTPQSIPYQDLPHLVNADGQYLFCRYWKPTGTPKALIFVSHGAGEHSGRYEELARMLMGLDLLVFAHDHVGHGQSEGERMVVSDFHVFVRDVLQHVDSMQKDYPGLPVFLLGHSMGGAIAILTAAERPGHFAGMVLISPLVLANPESATTFKVLAAKVLNSVLPNLSSGPIDSSVLSRNKTEVDIYNSDPLICRAGLKVCFGIQLLNAVSRVERALPKLTVPFLLLQGSADRLCDSKGAYLLMELAKSQDKTLKIYEGAYHVLHKELPEVTNSVFHEINMWVSQRTATA
B2: mut-MGLL 1-303, L171Q: engineered form of human MGLL, cap mutation (protein)
chain: MVDHHHHHHENLYFQGMPEESSPRRTPQSIPYQDLPHLVNADGQYLFCRYWKPTGTPKALIFVSHGAGEHSGRYEELARMLMGLDLLVFAHDHVGHGQSEGERMVVSDFHVFVRDVLQHVDSMQKDYPGLPVFLLGHSMGGAIAILTAAERPGHFAGMVLISPLVLANPESATTFKVLAAKVLNLVQPNLSLGPIDSSVLSRNKTEVDIYNSDPLICRAGLKVCFGIQLLNAVSRVERALPKLTVPFLLLQGSADRLCDSKGAYLLMELAKSQDKTLKIYEGAYHVLHKELPEVTNSVFHEINMWVSQRTATAGTASPP
B3: mut-MGLL 1-303, L167Q, L171Q: engineered form of human MGLL, cap mutations (protein)
chain: MVDHHHHHHENLYFQGMPEESSPRRTPQSIPYQDLPHLVNADGQYLFCRYWKPTGTPKALIFVSHGAGEHSGRYEELARMLMGLDLLVFAHDHVGHGQSEGERMVVSDFHVFVRDVLQHVDSMQKDYPGLPVFLLGHSMGGAIAILTAAERPGHFAGMVLISPLVLANPESATTFKVLAAKVQNLVQPNLSLGPIDSSVLSRNKTEVDIYNSDPLICRAGLKVCFGIQLLNAVSRVERALPKLTVPFLLLQGSADRLCDSKGAYLLMELAKSQDKTLKIYEGAYHVLHKELPEVTNSVFHEINMWVSQRTATAGTASPP
B4: mut-MGLL 1-303, L169S, L176S, K226A: engineered form of human MGLL, cap plus surface mutations (protein)
chain: MVDHHHHHHENLYFQGMPEESSPRRTPQSIPYQDLPHLVNADGQYLFCRYWKPTGTPKALIFVSHGAGEHSGRYEELARMLMGLDLLVFAHDHVGHGQSEGERMVVSDFHVFVRDVLQHVDSMQKDYPGLPVFLLGHSMGGAIAILTAAERPGHFAGMVLISPLVLANPESATTFKVLAAKVLNSVLPNLSSGPIDSSVLSRNKTEVDIYNSDPLICRAGLKVCFGIQLLNAVSRVERALPALTVPFLLLQGSADRLCDSKGAYLLMELAKSQDKTLKIYEGAYHVLHKELPEVTNSVFHEINMWVSQRTATAGTASPP
B5: mut-MGLL 1-303, L169S, L176S, K36A, K226A: engineered form of human MGLL, cap plus surface mutations (protein)
chain: MVDHHHHHHENLYFQGMPEESSPRRTPQSIPYQDLPHLVNADGQYLFCRYWAPTGTPKALIFVSHGAGEHSGRYEELARMLMGLDLLVFAHDHVGHGQSEGERMVVSDFHVFVRDVLQHVDSMQKDYPGLPVFLLGHSMGGAIAILTAAERPGHFAGMVLISPLVLANPESATTFKVLAAKVLNSVLPNLSSGPIDSSVLSRNKTEVDIYNSDPLICRAGLKVCFGIQLLNAVSRVERALPALTVPFLLLQGSADRLCDSKGAYLLMELAKSQDKTLKIYEGAYHVLHKELPEVTNSVFHEINMWVSQRTATAGTASPP
B6: mut-MGLL. 1-303, L169S, L176S, K160A: engineered form of human MGLL, cap plus surface mutations (protein)
chain: MVDHHHHHHENLYFQGMPEESSPRRTPQSIPYQDLPHLVNADGQYLFCRYWKPTGTPKALIFVSHGAGEHSGRYEELARMLMGLDLLVFAHDHVGHGQSEGERMVVSDFHVFVRDVLQHVDSMQKDYPGLPVFLLGHSMGGAIAILTAAERPGHFAGMVLISPLVLANPESATTFAVLAAKVLNSVLPNLSSGPIDSSVLSRNKTEVDIYNSDPLICRAGLKVCFGIQLLNAVSRVERALPKLTVPFLLLQGSADRLCDSKGAYLLMELAKSQDKTLKIYEGAYHVLHKELPEVTNSVFHEINMWVSQRTATAGTASPP
B7: mut-MGLL. 1-303, L167Q, L174Q: engineered form of human MGLL, cap mutations (protein)
chain: MVDHHHHHHENLYFQGMPEESSPRRTPQSIPYQDLPHLVNADGQYLFCRYWKPTGTPKALIFVSHGAGEHSGRYEELARMLMGLDLLVFAHDHVGHGQSEGERMVVSDFHVFVRDVLQHVDSMQKDYPGLPVFLLGHSMGGAIAILTAAERPGHFAGMVLISPLVLANPESATTFKVLAAKVQNLVLPNQSLGPIDSSVLSRNKTEVDIYNSDPLICRAGLKVCFGIQLLNAVSRVERALPKLTVPFLLLQGSADRLCDSKGAYLLMELAKSQDKTLKIYEGAYHVLHKELPEVTNSVFHEINMWVSQRTATAGTASPP
B8: mut-MGLL 1-303, L169S, L176S, K36A: engineered human MGLL 1-303 L169S, L176S, K36A; SEQ ID NO: 6, SEQ ID NO: 7 after TEV cleavage (protein)
chain: MVDHHHHHHENLYFQGMPEESSPRRTPQSIPYQDLPHLVNADGQYLFCRYWAPTGTPKALIFVSHGAGEHSGRYEELARMLMGLDLLVFAHDHVGHGQSEGERMVVSDFHVFVRDVLQHVDSMQKDYPGLPVFLLGHSMGGAIAILTAAERPGHFAGMVLISPLVLANPESATTFKVLAAKVLNSVLPNLSSGPIDSSVLSRNKTEVDIYNSDPLICRAGLKVCFGIQLLNAVSRVERALPKLTVPFLLLQGSADRLCDSKGAYLLMELAKSQDKTLKIYEGAYHVLHKELPEVTNSVFHEINMWVSQRTATAGTASPP
modifications: His tag and TEV site; SEQ ID 7 after TEV cleavage; Human
B9: mut-MGLL. 1-303, L169S, L176S, K165A: engineered form of human MGLL, cap plus surface mutations (protein)
chain: MVDHHHHHHENLYFQGMPEESSPRRTPQSIPYQDLPHLVNADGQYLFCRYWKPTGTPKALIFVSHGAGEHSGRYEELARMLMGLDLLVFAHDHVGHGQSEGERMVVSDFHVFVRDVLQHVDSMQKDYPGLPVFLLGHSMGGAIAILTAAERPGHFAGMVLISPLVLANPESATTFKVLAAAVLNSVLPNLSSGPIDSSVLSRNKTEVDIYNSDPLICRAGLKVCFGIQLLNAVSRVERALPKLTVPFLLLQGSADRLCDSKGAYLLMELAKSQDKTLKIYEGAYHVLHKELPEVTNSVFHEINMWVSQRTATAGTASPP
B10: mut-MGLL 1-303, L171Q, L174Q: engineered form of human MGLL, cap mutations (protein)
chain: MVDHHHHHHENLYFQGMPEESSPRRTPQSIPYQDLPHLVNADGQYLFCRYWKPTGTPKALIFVSHGAGEHSGRYEELARMLMGLDLLVFAHDHVGHGQSEGERMVVSDFHVFVRDVLQHVDSMQKDYPGLPVFLLGHSMGGAIAILTAAERPGHFAGMVLISPLVLANPESATTFKVLAAKVLNLVQPNQSLGPIDSSVLSRNKTEVDIYNSDPLICRAGLKVCFGIQLLNAVSRVERALPKLTVPFLLLQGSADRLCDSKGAYLLMELAKSQDKTLKIYEGAYHVLHKELPEVTNSVFHEINMWVSQRTATAGTASPP
B11: mut-MGLL 9-303, L169S, L176S: engineered form of human MGLL, cap mutations plus truncation (protein, UniProt Q99685 9-303, looked up, variant L169S L176S)
chain: RTPQSIPYQDLPHLVNADGQYLFCRYWKPTGTPKALIFVSHGAGEHSGRYEELARMLMGLDLLVFAHDHVGHGQSEGERMVVSDFHVFVRDVLQHVDSMQKDYPGLPVFLLGHSMGGAIAILTAAERPGHFAGMVLISPLVLANPESATTFKVLAAKVLNSVLPNLSSGPIDSSVLSRNKTEVDIYNSDPLICRAGLKVCFGIQLLNAVSRVERALPKLTVPFLLLQGSADRLCDSKGAYLLMELAKSQDKTLKIYEGAYHVLHKELPEVTNSVFHEINMWVSQRTATAGTASPP

This series relates to MGLL. The series is described as follows: Kinetic analysis: hydrolysis of 4-methyl coumarin butyrate (4MC-B) by MGLL constructs. It counts as biochemical, human. Particulars: substrate 4MC-B; 4-5 nM MGLL, 20 mM Pipes pH 7, 150 mM NaCl, 37° C.; average of 2 or 4 separate assays. The text has this: A small fluorescent substrate, 4-methyl coumarin butyrate (4MC-B) was used to compare the activity of the engineered mutants to the activity of wt-MGLL (hMGLL 1-303) (SEQ ID NO: 3). The catalytic efficiency (kcat/KM) for the hydrolysis of the 4MC-B was similar for wt-MGLL (hMGLL 1-303) (SEQ ID NO: 3) and all MGLL mutants tested (Table 2). A larger more aliphatic fluorescent substrate, Coumarin Arachidonate (C-A), structurally more closely related to the MGLL natural substrate, 2-AG, was used to compare the activity of wt-MGLL (hMGLL 1-303) (SEQ ID NO: 3) to TEV cleaved mut-MGLL (hMGLL 1-303 L169S, L176S) (SEQ ID NO: 5).
The Michaelis-Menten parameters for the hydrolysis of 4-methylcoumarin butyrate (4MC-B) and coumarin arachidonate (C-A) substrate were determined using 4-5 nM of MGLL in 20 mM Pipes pH 7 and 150 mM NaCl at 37° C. The change in fluorescence due to substrate hydrolysis was monitored using excitation/emission wavelengths of 335/440 in a Safire II instrument from Tecan. The hyperbolic rates versus substrate concentration curves for the hydrolysis of 4MC-B were fit to the Michaelis-Menten equation using Excel.
Consider B1, for which the Kcat is 0.433 s⁻¹ and the Km was 126 µM.

On to B2, for which the Kcat is 0.85 s⁻¹ and the Km came out at 105 µM.

As to B3, the Kcat is 0.983 s⁻¹ and the Michaelis constant (Km) amounted to 84 µM.

As to B4, the Kcat came out at 0.633 s⁻¹ and the Km was 110 µM.

Regarding B5, the Kcat worked out at 0.5 s⁻¹ and the Km was 123 µM.

B6: the Kcat was 0.5 s⁻¹ and the Michaelis-Menten constant (Km) was 90 µM.

Turning to B7, the Kcat was 1.17 s⁻¹ and the Michaelis constant (Km) came out at 84 µM.

Regarding B8, the Kcat is 0.85 s⁻¹ and the Michaelis-Menten constant (Km) was 124 µM.

B9: the Kcat stood at 0.45 s⁻¹ and the Michaelis constant (Km) worked out at 137 µM.

B10: the Kcat is 0.783 s⁻¹ and the Michaelis constant (Km) turned out to be 89 µM.

As for B11, the Kcat stood at 0.45 s⁻¹ and the Michaelis constant (Km) is 88 µM.

What is called Km is the concentration of substrate that gives half-maximal velocity.
